Key:
PARP1 (Homo sapiens) = experiment: fluorescence polarization; details: not stated in the material (methods in supplement)
PARP2 (Homo sapiens) = experiment: fluorescence polarization; details: not stated in the material (methods in supplement)

Q: p18mer DNA was tested. Which Kd (PARP1 (Homo sapiens)) did it give?
A: 13 nM

Q: What about the Kd (PARP2 (Homo sapiens)) of the same substance?
A: 59 nM

Q: Which results are given for tRNALeu?
A: Kd (PARP1 (Homo sapiens)): 159 nM; Kd (PARP2 (Homo sapiens)): 37 nM

Q: Which results are given for gas5?
A: Kd (PARP1 (Homo sapiens)): 350 nM; Kd (PARP2 (Homo sapiens)): 40 nM

Q: Which Kd (PARP2 (Homo sapiens)) does the source give for 19mer here?
A: 55 nM
